Data as given in the supplement of paper PMC9112550, “Optimization of the antimicrobial peptide Bac7 by deep mutational scanning” (BMC Biology, 2022).

Test system: Escherichia coli TOP10
Assay: shrunken log2 fold change of peptide-encoding DNA abundance (4.5 h post-induction vs induction); higher = less antimicrobial activity (less host growth inhibition)
Details: time post-induction: 4.5 h; library: site-saturation at positions 5, 18, 19, 20
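Note: peptides expressed intracellularly from a pBAD plasmid library in pooled LB shake-flask culture, induced with 0.3% L-arabinose, DNA abundance read by NGS, three biological replicates, DESeq2 with apeglm shrinkage.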

Row | Sequence | shrunken log2 fold change
1 | RRIRGRPPRLPRPRPRPRSCPRP | 0.759
2 | RRIRDRPPRLPRPRPRPEDHPRP | 1.08
3 | RRIRKRPPRLPRPRPRPNIFPRP | -0.021
4 | RRIRTRPPRLPRPRPRPVLHPRP | -0.139
5 | RRIRHRPPRLPRPRPRPEHQPRP | -0.291
6 | RRIRRRPPRLPRPRPRPRSIPRP | -0.0781
7 | RRIRIRPPRLPRPRPRPNFEPRP | -0.218
8 | RRIRQRPPRLPRPRPRPIDNPRP | -0.36
9 | RRIRCRPPRLPRPRPRPQDFPRP | 0.0295
10 | RRIRERPPRLPRPRPRPVIAPRP | -0.205
11 | RRIRPRPPRLPRPRPRPPCSPRP | -0.232
12 | RRIRDRPPRLPRPRPRPCPSPRP | 0.114
13 | RRIRRRPPRLPRPRPRPNMWPRP | -0.253
14 | RRIRERPPRLPRPRPRPYMMPRP | -0.259
15 | RRIRVRPPRLPRPRPRPKHDPRP | -0.31
16 | RRIRTRPPRLPRPRPRPARTPRP | 0.381
17 | RRIRHRPPRLPRPRPRPAGSPRP | -0.0875
18 | RRIRARPPRLPRPRPRPCPKPRP | -0.0619
19 | RRIRQRPPRLPRPRPRPMYGPRP | -0.0233
20 | RRIRTRPPRLPRPRPRPTWAPRP | -0.117
21 | RRIRARPPRLPRPRPRPPHEPRP | 1.29
22 | RRIRRRPPRLPRPRPRPDVTPRP | -0.0312
23 | RRIRSRPPRLPRPRPRPPNDPRP | -0.0183
24 | RRIRERPPRLPRPRPRPSRDPRP | -0.12
25 | RRIRERPPRLPRPRPRPGALPRP | 0.122

Row | Sequence | shrunken log2 fold change
26 | RRIRCRPPRLPRPRPRPPRAPRP | 0.934
27 | RRIRARPPRLPRPRPRPKRYPRP | 0.159
28 | RRIRSRPPRLPRPRPRPTKMPRP | 0.00603
29 | RRIRYRPPRLPRPRPRPKQFPRP | -0.155
30 | RRIRMRPPRLPRPRPRPNTTPRP | 0.191
31 | RRIRDRPPRLPRPRPRPHWMPRP | 0.236
32 | RRIRQRPPRLPRPRPRPCCDPRP | -0.0081
33 | RRIRFRPPRLPRPRPRPLKEPRP | -0.273
34 | RRIRPRPPRLPRPRPRPVAWPRP | 0.225
35 | RRIRIRPPRLPRPRPRPQKCPRP | -0.506
36 | RRIRIRPPRLPRPRPRPFMEPRP | -0.354
37 | RRIRIRPPRLPRPRPRPEHDPRP | -0.523
38 | RRIRRRPPRLPRPRPRPYHGPRP | -0.169
39 | RRIRHRPPRLPRPRPRPINWPRP | -0.35
40 | RRIRPRPPRLPRPRPRPQERPRP | 0.0985
41 | RRIRDRPPRLPRPRPRPKHWPRP | 0.723
42 | RRIRNRPPRLPRPRPRPIRFPRP | -0.0225
43 | RRIRSRPPRLPRPRPRPCTIPRP | -0.148
44 | RRIRLRPPRLPRPRPRPNEGPRP | 0.00337
45 | RRIRWRPPRLPRPRPRPVSLPRP | 0.15
46 | RRIRARPPRLPRPRPRPHHCPRP | -0.859
47 | RRIRTRPPRLPRPRPRPKMQPRP | 0.384
48 | RRIRHRPPRLPRPRPRPHLEPRP | -0.0228
49 | RRIRNRPPRLPRPRPRPFKHPRP | -0.39
50 | RRIRGRPPRLPRPRPRPDTCPRP | 0.131

Row | Sequence | shrunken log2 fold change
51 | RRIRPRPPRLPRPRPRPSVGPRP | -0.295
52 | RRIRDRPPRLPRPRPRPQHRPRP | -0.198
53 | RRIRDRPPRLPRPRPRPIGAPRP | -0.173
54 | RRIRYRPPRLPRPRPRPWYIPRP | -0.00804
55 | RRIRTRPPRLPRPRPRPDMKPRP | -0.0377
56 | RRIRNRPPRLPRPRPRPWMQPRP | -0.218
57 | RRIRYRPPRLPRPRPRPITDPRP | -0.162
58 | RRIRHRPPRLPRPRPRPAWVPRP | 0.15
59 | RRIRWRPPRLPRPRPRPRDWPRP | 0.958
60 | RRIRDRPPRLPRPRPRPWTLPRP | -0.424
61 | RRIRNRPPRLPRPRPRPNRKPRP | 2.2
62 | RRIRQRPPRLPRPRPRPNLTPRP | -0.432
63 | RRIRQRPPRLPRPRPRPLNYPRP | -0.548
64 | RRIRMRPPRLPRPRPRPAFKPRP | -0.323
65 | RRIRPRPPRLPRPRPRPDTEPRP | -0.48
66 | RRIRVRPPRLPRPRPRPCHEPRP | -0.378
67 | RRIRHRPPRLPRPRPRPETIPRP | -0.0239
68 | RRIRGRPPRLPRPRPRPKWQPRP | 0.194
69 | RRIRARPPRLPRPRPRPFFAPRP | 0.67
70 | RRIRKRPPRLPRPRPRPCLFPRP | 0.0241
71 | RRIRLRPPRLPRPRPRPQKCPRP | -0.222
72 | RRIRERPPRLPRPRPRPRPIPRP | 0.345
73 | RRIRVRPPRLPRPRPRPVHLPRP | 0.0586
74 | RRIRTRPPRLPRPRPRPDMLPRP | 0.035
75 | RRIRHRPPRLPRPRPRPFPVPRP | 0.0399

Row | Sequence | shrunken log2 fold change
76 | RRIRPRPPRLPRPRPRPMGPPRP | -0.248
77 | RRIRLRPPRLPRPRPRPRHSPRP | 0.0207
78 | RRIRNRPPRLPRPRPRPNWFPRP | -0.145
79 | RRIRLRPPRLPRPRPRPSTQPRP | -0.337
80 | RRIRLRPPRLPRPRPRPNYPPRP | -0.156
81 | RRIRGRPPRLPRPRPRPFEYPRP | 0.0664
82 | RRIRWRPPRLPRPRPRPAIFPRP | 0.327
83 | RRIRFRPPRLPRPRPRPDVDPRP | 0.0167
84 | RRIRCRPPRLPRPRPRPGNKPRP | -0.223
85 | RRIRERPPRLPRPRPRPKETPRP | 0.0319
86 | RRIRFRPPRLPRPRPRPDIPPRP | -0.634
87 | RRIRIRPPRLPRPRPRPSNYPRP | -0.086
88 | RRIRRRPPRLPRPRPRPKFSPRP | 0.0704
89 | RRIRMRPPRLPRPRPRPGVMPRP | 0.633
90 | RRIRNRPPRLPRPRPRPFQQPRP | -0.00931
91 | RRIRVRPPRLPRPRPRPKWIPRP | -0.114
92 | RRIRCRPPRLPRPRPRPSNPPRP | 0.442
93 | RRIRRRPPRLPRPRPRPWNWPRP | 2.98
94 | RRIRMRPPRLPRPRPRPMNRPRP | -0.24
95 | RRIRTRPPRLPRPRPRPQHSPRP | -0.183
96 | RRIRSRPPRLPRPRPRPWFEPRP | -0.0139
97 | RRIRVRPPRLPRPRPRPEHHPRP | -0.334
98 | RRIRDRPPRLPRPRPRPVCYPRP | -0.0717
99 | RRIRIRPPRLPRPRPRPWQRPRP | -0.075
100 | RRIRWRPPRLPRPRPRPENHPRP | -0.176

Row | Sequence | shrunken log2 fold change
101 | RRIRGRPPRLPRPRPRPYRSPRP | -0.113
102 | RRIRMRPPRLPRPRPRPLEFPRP | -0.102
103 | RRIRDRPPRLPRPRPRPGCEPRP | 0.852
104 | RRIRQRPPRLPRPRPRPIDTPRP | -0.216
105 | RRIRLRPPRLPRPRPRPYCKPRP | -0.736
106 | RRIRERPPRLPRPRPRPYLAPRP | -0.225
107 | RRIRARPPRLPRPRPRPIWRPRP | 0.426
108 | RRIRARPPRLPRPRPRPFGIPRP | 0.0411
109 | RRIRERPPRLPRPRPRPQPSPRP | 0.0462
110 | RRIRDRPPRLPRPRPRPDQRPRP | -0.00174
111 | RRIRGRPPRLPRPRPRPGDLPRP | 2.41
112 | RRIRGRPPRLPRPRPRPCHPPRP | -0.119
113 | RRIRKRPPRLPRPRPRPDGWPRP | 0.152
114 | RRIRQRPPRLPRPRPRPIIKPRP | -0.111
115 | RRIRTRPPRLPRPRPRPTHFPRP | 0.301
116 | RRIRKRPPRLPRPRPRPYYDPRP | -0.204
117 | RRIRSRPPRLPRPRPRPGCLPRP | 0.0602
118 | RRIRPRPPRLPRPRPRPAVHPRP | 0.0984
119 | RRIRTRPPRLPRPRPRPVWEPRP | 0.264
120 | RRIRGRPPRLPRPRPRPKSVPRP | 0.591
121 | RRIRVRPPRLPRPRPRPRKHPRP | 0.112
122 | RRIRTRPPRLPRPRPRPSAIPRP | -0.979
123 | RRIRVRPPRLPRPRPRPWLVPRP | 0.128
124 | RRIRARPPRLPRPRPRPHKYPRP | -0.243
125 | RRIRKRPPRLPRPRPRPVYRPRP | -0.667

Row | Sequence | shrunken log2 fold change
126 | RRIRQRPPRLPRPRPRPRSGPRP | 0.162
127 | RRIRARPPRLPRPRPRPFDLPRP | 0.0229
128 | RRIRPRPPRLPRPRPRPIPQPRP | -0.321
129 | RRIRRRPPRLPRPRPRPDEVPRP | 0.61
130 | RRIRARPPRLPRPRPRPCPVPRP | 0.0768
131 | RRIRTRPPRLPRPRPRPVPLPRP | -0.145
132 | RRIRSRPPRLPRPRPRPFKHPRP | -0.195
133 | RRIRGRPPRLPRPRPRPARKPRP | 0.222
134 | RRIRRRPPRLPRPRPRPVYWPRP | 0.303
135 | RRIRCRPPRLPRPRPRPHTQPRP | -0.55
136 | RRIRQRPPRLPRPRPRPPFQPRP | 0.0422
137 | RRIRVRPPRLPRPRPRPQDSPRP | -0.069
138 | RRIRLRPPRLPRPRPRPWFLPRP | -0.449
139 | RRIRPRPPRLPRPRPRPPVMPRP | 0.303
140 | RRIRVRPPRLPRPRPRPMGPPRP | 0.24
141 | RRIRQRPPRLPRPRPRPNINPRP | -0.633
142 | RRIRMRPPRLPRPRPRPCPSPRP | 0.0607
143 | RRIRARPPRLPRPRPRPDMNPRP | 0.31
144 | RRIRARPPRLPRPRPRPQRTPRP | 0.11
145 | RRIRSRPPRLPRPRPRPRSLPRP | -0.0256
146 | RRIRDRPPRLPRPRPRPFTNPRP | -0.0104
147 | RRIRMRPPRLPRPRPRPPQGPRP | 0.834
148 | RRIRFRPPRLPRPRPRPNNEPRP | -0.265
149 | RRIRGRPPRLPRPRPRPFCCPRP | 0.522
150 | RRIRYRPPRLPRPRPRPHCMPRP | -0.161
